# Legend:
# [1] = target: Ag85 (antigen 85 complex proteins) on the surface of live Mycobacterium abscessus cells (M. abscessus (endogenous in CIP104536T cells)); assay: dynamic force spectroscopy (AFM single-molecule force spectroscopy at varied loading rate); Fn tip on live M. abscessus R cells; retraction speeds 0.5, 1, 2.5, 5 and 10 um/s; loading rates 100 to 100,000 pN/s; 13 cells; fit of the Friddle-Noy-de Yoreo model; Kd calculated from Feq and keff (7 pN/nm)
# [2] = target: Ag85 (antigen 85 complex proteins) on the surface of live Mycobacterium abscessus cells (M. abscessus (endogenous in CIP104536T cells)); assay: single-cell force spectroscopy (AFM); single M. abscessus R cell on a polydopamine colloidal probe against Fn coupled to a gold surface; PBS; maximum force 250 pN, contact time 500 ms, approach and retraction 1 um/s
# [3] = target: Ag85 (antigen 85 complex proteins) on the surface of live Mycobacterium abscessus cells (M. abscessus (endogenous in CIP104536T cells)); assay: single-molecule force spectroscopy (AFM); Fn-functionalized gold-coated AFM tip on live M. abscessus R cells adhered to a hydrophobic Petri dish; PBS; maximum force 250 pN, contact time 500 ms, retraction 1 um/s
substance,measurement,setting,value
purified human plasma fibronectin (natural protein),Kd,[1],0.095 µM
same,equilibrium force (Feq),[1],34 pN
same,koff,[1],33 s⁻¹
same,adhesion force,[2],77 pN
same,"adhesion frequency (fraction of adhesive force curves), without peptide",[2],30%
same,adhesion (rupture) force,[3],75 pN
same,"adhesion frequency (fraction of adhesive force curves), without peptide",[3],30%
